The source of these data is paper PMC11480844 (2024).

Sequences and labels used below:
T1: peptide on HLA-B*07:02 (human)
T1 peptide: VPSVWRSSL

B1: R26 (TCR, V domains shown)
Valpha: GQQVMQIPQYQHVQEGEDFTTYCNSSTTLSNIQWYKQRPGGHPVFLIQLVKSGEVKKQKRLTFQFGEAKKNSSLHITATQTTDVGTYFCAGQDYAGKSTFGDGTTLTVKP
Vbeta: DTGVSQNPRHKITKRGQNVTFRCDPISEHNRLYWYRQTLGQGPEFLTYFQNEAQLEKSRLLSDRFSAERPKGSFSTLEIQRTEQGDSAMYLCASSSGGRFYGYTFGSGTRLTVV
B2: R23 (TCR, V domains shown)
Valpha: KQEVTQIPAALSVPEGENLVLNCSFTDSAIYNLQWFRQDPGKGLTSLLLIQSSQREQTSGRLNASLDKSSGRSTLYIAASQPGDSATYLCAVRPQGGSEKLVFGKGTKLTVNP
Vbeta: EAQVTQNPRYLITVTGKKLTVTCSQNMNHEYMSWYRQDPGLGLRQIYYSMNVEVTDKGDVPEGYKVSRKEKRNFPLILESPSPNQTSLYFCASTVGGTQYFGPGTRLTVL
B3: R25 (TCR, V domains shown)
Valpha: GENVEQHPSTLSVQEGDSAVIKCTYSDSASNYFPWYKQELGKGPQLIIDIRSNVGEKKDQRIAVTLNKTAKHFSLHITETQPEDSAVYFCAAQKTSYDKVIFGPGTSLSVIP
Vbeta: EAQVTQNPRYLITVTGKKLTVTCSQNMNHEYMSWYRQDPGLGLRQIYYSMNVEVTDKGDVPEGYKVSRKEKRNFPLILESPSPNQTSLYFCASSTPGSLNEQFFGPGTRLTVL
B4: R28 (TCR, V domains shown)
Valpha: AQTVTQSQPEMSVQEAETVTLSCTYDTSESDYYLFWYKQPPSRQMILVIRQEAYKQQNATENRFSVNFQKAAKSFSLKISDSQLGDAAMYFCAYRSAGNQGAQKLVFGQGTRLTINP
Vbeta: ETGVTQSPTHLIKTRGQQVTLRCSSQSGHNTVSWYQQALGQGPQFIFQYYREEENGRGNFPPRFSGLQFPNYSSELNVNALELDDSALYLCASSLGRGTYEQYFGPGTRLTVT
B5: R24 (TCR, V domains shown)
Valpha: GQQVMQIPQYQHVQEGEDFTTYCNSSTTLSNIQWYKQRPGGHPVFLIQLVKSGEVKKQKRLTFQFGEAKKNSSLHITATQTTDVGTYFCAVHMNRDDKIIFGKGTRLHILP
Vbeta: EAQVTQNPRYLITVTGKKLTVTCSQNMNHEYMSWYRQDPGLGLRQIYYSMNVEVTDKGDVPEGYKVSRKEKRNFPLILESPSPNQTSLYFCASSLTSFYEQYFGPGTRLTVT
B6: R21 (TCR, V domains shown)
Valpha: AQKVTQAQTEISVVEKEDVTLDCVYETRDTTYYLFWYKQPPSGELVFLIRRNSFDEQNEISGRYSWNFQKSTSSFNFTITASQVVDSAVYFCALGTYGNNRLAFGKGNQVVVIP
Vbeta: NAGVTQTPKFRILKIGQSMTLQCAQDMNHNYMYWYRQDPGMGLKLIYYSVGAGITDKGEVPNGYNVSRSTTEDFPLRLELAAPSQTSVYFCASTKGGPSSYEQYFGPGTRLTVT

This assay concerns the target T1, peptide on HLA-B*07:02. In words: activation reporter or marker.
In the case of B1, the binding result is “recognises”.
Turning to B2, the binding result is recorded as “recognises”.
Then B3, with “recognises”; and B4, with “recognises”; and B5, with “recognises”.
B6: the binding result was “recognises”.
